Eight substances from patent US6531306 can be followed below.

Data set [1] deals with MAbs specific for DNA-dependent ATPase A.
Data set [2] has as its target T1, Active DNA-dependent ATPase A Domain (ADAAD, 82 kDa) (Bos taurus) (UniProt Q9TTA5).
T1 sequence: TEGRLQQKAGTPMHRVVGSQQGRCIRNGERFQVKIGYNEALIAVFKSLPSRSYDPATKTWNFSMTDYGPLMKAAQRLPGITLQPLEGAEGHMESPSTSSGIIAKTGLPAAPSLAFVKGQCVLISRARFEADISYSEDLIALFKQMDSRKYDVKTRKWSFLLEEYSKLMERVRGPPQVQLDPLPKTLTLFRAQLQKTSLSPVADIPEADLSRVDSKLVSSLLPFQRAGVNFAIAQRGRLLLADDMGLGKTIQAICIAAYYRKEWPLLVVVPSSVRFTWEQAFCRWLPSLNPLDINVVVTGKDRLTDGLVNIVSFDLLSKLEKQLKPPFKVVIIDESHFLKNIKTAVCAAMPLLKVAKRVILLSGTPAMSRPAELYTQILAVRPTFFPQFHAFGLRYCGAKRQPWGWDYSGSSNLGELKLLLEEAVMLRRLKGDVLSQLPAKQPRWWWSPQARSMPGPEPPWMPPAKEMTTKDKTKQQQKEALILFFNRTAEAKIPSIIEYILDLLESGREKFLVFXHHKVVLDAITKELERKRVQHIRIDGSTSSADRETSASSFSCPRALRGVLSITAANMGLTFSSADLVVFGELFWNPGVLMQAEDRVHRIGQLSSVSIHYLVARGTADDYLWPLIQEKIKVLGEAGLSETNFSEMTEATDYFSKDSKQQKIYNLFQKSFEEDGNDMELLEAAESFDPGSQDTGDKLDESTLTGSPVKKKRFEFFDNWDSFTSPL
The settings on record: ATP hydrolysis.

Data set [3] concerns the target T1, Active DNA-dependent ATPase A Domain (ADAAD, 82 kDa) (Bos taurus). The settings on record: apparent binding constant from ATP hydrolysis kinetics.
For data set [4] the target is unchanged. The settings on record: ATP hydrolysis. The source holds these as a separate data set.
For data set [5] the target is unchanged. The settings on record: blunt-ended stem-loop, dG 18.4; ATP hydrolysis; SEQ:1 inferred.
Data set [6] shares this target. The settings on record: ATP hydrolysis. The source holds these as a separate data set.

Like-named read-outs stand apart in the source and are kept apart here.

Regarding DNA-dependent ATPase A, the “DNA-dependent ATP hydrolysis in vitro” value in data set [1] is “none of the MAbs demonstrate inhibition of DNA-dependent ATP hydrolysis in vitro”. The substance “Table 16 structure 7 blunt-ended duplex, 4 base mismatch” returned an activity (relative activity) in data set [2] of 66.5. With stem-loop DNA, 9-base loop, the Ka in data set [3] was determined as 8e+07 M⁻¹. Consider “Table 16 structure 8 blunt-ended duplex, 10 base mismatch”, for which, in data set [4], the activity (relative activity) came to 83.7. stem-loop DNA, 3-base loop: in data set [3], the Ka was 2e+07 M⁻¹. In data set [5], “GCGCAATTGCGCTCGACGATTTTTTAGCGCAATTGCGC [stem-loop DNA, 12-base loop]” came in with an activity (relative activity) of 90. In data set [6], “Table 16 structure 6 AT-rich blunt-ended duplex” came in with an activity (relative activity) of 49.

For the substance stem-loop DNA, 6-base loop, the Ka in data set [3] came out at 5e+07 M⁻¹.
